The results in this text go back to PMC2711601.

The test has as its target ribosomes of dog pancreas rough microsomes (ribosomal pellet after digitonin solubilisation) (dog (endogenous in dog pancreas microsomes)). The experiment in a line: co-sedimentation.

“RAMP4 (ribosome-associated membrane protein 4, dog pancreas microsomes) (from UniProt A0A8I3PRN4 1-66) (natural protein)” gave a percent in the ribosome pellet of 10 to 20%.

“Sec61β, subunit of the Sec61p translocon complex (dog pancreas microsomes) (from UniProt P60467 1-96) (natural protein)” returned a percent pelleted with ribosomes of 80%.
